Tests used:
Assay in all cases: pull-down; in vitro translated and purified XPF WT-Myc or R568K-Myc, with or without in vitro methylation by CARM1-FLAG beads (1 mM S-adenosylmethionine, 50 mM Tris-HCl pH 8.0, 10 mM DTT, 3 h at 30°C), then pulled down with GST-ERCC1; western blot
Conditions in all cases: both partners purified
[1] = target: T1, in vitro translated XPF WT-Myc (human, UniProt Q92889 1-916)
T1 construct: XPF (xeroderma pigmentosum group F protein), human; source: in vitro translated (wheat germ cell-free system, pEU-E01-MCS); used as reaction mixture, and purified (Ni-NTA, anti-Myc magnetic beads, Myc peptide elution)
T1 sequence: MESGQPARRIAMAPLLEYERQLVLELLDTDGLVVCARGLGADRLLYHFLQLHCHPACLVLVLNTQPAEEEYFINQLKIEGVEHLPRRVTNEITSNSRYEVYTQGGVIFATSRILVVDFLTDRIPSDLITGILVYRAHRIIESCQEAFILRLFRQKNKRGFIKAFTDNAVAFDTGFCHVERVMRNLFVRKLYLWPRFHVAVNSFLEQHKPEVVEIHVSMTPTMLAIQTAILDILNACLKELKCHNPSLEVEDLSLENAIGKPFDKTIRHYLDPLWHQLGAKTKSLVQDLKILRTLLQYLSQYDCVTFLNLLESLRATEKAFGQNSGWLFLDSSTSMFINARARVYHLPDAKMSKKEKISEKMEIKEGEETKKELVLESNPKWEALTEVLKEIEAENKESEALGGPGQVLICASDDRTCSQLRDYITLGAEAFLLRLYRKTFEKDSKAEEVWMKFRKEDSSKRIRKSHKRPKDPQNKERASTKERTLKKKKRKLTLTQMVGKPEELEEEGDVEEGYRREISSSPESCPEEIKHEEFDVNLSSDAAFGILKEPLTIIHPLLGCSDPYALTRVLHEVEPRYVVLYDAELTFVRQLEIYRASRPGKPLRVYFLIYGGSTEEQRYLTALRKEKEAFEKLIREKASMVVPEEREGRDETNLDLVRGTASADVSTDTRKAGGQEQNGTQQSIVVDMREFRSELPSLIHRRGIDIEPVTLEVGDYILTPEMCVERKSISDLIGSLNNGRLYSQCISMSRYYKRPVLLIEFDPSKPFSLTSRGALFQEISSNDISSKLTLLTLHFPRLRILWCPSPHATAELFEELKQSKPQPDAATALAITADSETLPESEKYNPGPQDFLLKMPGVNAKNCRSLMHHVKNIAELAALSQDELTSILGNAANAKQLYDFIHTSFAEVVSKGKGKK

[2] = target: T2, XPF WT-Myc after CARM1-mediated methylation (human, UniProt Q92889 1-916, arginine methylation by CARM1 in vitro; the paper names R568 as the site whose methylation promotes binding to ERCC1)
T2 construct: XPF (xeroderma pigmentosum group F protein), human; also called methylated XPF WT-Myc
T2 sequence: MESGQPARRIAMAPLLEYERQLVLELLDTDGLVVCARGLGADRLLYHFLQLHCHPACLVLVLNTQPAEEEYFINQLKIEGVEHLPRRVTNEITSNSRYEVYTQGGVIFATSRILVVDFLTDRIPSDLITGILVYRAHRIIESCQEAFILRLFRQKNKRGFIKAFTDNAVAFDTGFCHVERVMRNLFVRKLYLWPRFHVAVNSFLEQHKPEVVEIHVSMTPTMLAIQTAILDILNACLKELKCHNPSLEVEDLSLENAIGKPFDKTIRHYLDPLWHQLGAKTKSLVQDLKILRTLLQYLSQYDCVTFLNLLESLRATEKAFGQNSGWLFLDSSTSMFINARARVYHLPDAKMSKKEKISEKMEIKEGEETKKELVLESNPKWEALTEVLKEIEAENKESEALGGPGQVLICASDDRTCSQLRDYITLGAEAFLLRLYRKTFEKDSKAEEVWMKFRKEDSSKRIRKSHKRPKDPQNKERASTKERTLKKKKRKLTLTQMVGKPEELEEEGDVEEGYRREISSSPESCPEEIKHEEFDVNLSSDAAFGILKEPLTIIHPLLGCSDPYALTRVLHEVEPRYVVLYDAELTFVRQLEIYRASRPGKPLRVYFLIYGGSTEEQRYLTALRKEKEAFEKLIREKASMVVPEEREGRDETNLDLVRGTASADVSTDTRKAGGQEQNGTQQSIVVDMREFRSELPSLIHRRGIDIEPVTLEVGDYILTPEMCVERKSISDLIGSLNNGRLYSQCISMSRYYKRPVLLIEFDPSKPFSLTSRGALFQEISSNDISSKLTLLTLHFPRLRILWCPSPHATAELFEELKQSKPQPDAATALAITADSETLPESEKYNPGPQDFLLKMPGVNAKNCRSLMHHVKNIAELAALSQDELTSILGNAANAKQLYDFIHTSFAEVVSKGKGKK

[3] = target: T3, XPF R568K-Myc after the in vitro methylation assay with CARM1 (human, UniProt Q92889 1-916, R568K, subjected to the in vitro methylation assay with CARM1; methylated residues not stated)
T3 construct: also called R568K-Myc mutant after methylation assay
T3 sequence: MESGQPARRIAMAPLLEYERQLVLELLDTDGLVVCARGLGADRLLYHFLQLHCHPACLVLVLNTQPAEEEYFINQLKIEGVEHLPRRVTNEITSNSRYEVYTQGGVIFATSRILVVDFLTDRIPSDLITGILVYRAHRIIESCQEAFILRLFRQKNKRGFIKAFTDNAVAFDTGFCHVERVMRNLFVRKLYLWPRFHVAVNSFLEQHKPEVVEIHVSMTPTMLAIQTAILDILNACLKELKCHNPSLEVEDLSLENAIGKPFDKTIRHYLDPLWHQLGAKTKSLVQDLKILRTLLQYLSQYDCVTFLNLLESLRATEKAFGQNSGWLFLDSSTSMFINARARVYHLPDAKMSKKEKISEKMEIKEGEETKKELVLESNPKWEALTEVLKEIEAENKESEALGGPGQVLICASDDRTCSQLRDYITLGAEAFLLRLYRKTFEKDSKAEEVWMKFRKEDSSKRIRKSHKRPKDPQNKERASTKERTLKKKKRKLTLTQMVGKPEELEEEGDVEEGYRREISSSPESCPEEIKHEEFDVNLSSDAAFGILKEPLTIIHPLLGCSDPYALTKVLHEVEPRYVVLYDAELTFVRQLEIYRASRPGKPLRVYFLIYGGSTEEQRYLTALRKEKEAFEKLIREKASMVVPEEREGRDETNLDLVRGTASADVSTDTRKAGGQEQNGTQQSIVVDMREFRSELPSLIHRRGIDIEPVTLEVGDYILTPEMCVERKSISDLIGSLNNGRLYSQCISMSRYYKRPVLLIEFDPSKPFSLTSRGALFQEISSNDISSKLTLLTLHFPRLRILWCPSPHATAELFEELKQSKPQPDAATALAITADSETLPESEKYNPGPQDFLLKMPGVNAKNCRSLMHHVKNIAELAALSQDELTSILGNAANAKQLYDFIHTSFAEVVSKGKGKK

[4] = target: T4, in vitro translated XPF R568K-Myc (human, UniProt Q92889 1-916, R568K)
T4 construct: also called RK; source: in vitro translated (wheat germ cell-free system); used as reaction mixture, and purified (Ni-NTA, anti-Myc magnetic beads, Myc peptide elution)
T4 sequence: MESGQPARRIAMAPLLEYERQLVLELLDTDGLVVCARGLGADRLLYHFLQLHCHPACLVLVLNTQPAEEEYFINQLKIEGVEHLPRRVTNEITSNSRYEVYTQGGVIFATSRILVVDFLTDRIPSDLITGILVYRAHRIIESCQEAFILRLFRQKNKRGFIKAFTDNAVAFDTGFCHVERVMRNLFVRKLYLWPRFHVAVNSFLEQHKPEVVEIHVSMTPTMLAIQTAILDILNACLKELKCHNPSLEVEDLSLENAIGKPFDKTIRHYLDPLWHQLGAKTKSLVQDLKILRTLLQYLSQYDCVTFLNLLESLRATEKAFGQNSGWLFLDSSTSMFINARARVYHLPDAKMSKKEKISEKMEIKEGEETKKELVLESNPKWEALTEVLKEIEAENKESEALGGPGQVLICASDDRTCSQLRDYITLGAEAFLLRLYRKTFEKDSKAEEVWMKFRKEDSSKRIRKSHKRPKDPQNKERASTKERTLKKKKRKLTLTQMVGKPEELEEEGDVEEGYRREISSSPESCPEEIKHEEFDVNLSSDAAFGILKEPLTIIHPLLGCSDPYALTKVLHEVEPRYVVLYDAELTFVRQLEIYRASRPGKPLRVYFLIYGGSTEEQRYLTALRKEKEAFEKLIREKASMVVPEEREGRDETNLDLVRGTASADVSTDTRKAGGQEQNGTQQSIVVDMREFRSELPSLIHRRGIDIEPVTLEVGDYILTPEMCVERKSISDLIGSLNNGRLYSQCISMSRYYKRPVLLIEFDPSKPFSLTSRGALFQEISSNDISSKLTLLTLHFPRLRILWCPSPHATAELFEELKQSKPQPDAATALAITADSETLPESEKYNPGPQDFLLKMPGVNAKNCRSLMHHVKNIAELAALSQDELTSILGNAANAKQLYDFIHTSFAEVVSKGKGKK

Measured: binding result

B1: GST-ERCC1 (natural protein, human)
chain: MDPGKDKEGVPQPSGPPARKKFVIPLDEDEVPPGVAKPLFRSTQSLPTVDTSAQAAPQTYAEYAISQPLEGAGATCPTGSEPLAGETPNQALKPGAKSNSIIVSPRQRGNPVLKFVRNVPWEFGDVIPDYVLGQSTCALFLSLRYHNLHPDYIHGRLQSLGKNFALRVLLVQVDVKDPQQALKELAKMCILADCTLILAWSPEEAGRYLETYKAYEQKPADLLMEKLEQDFVSRVTECLTTVKSVNKTDSQTLLTTFGSLEQLIAASREDLALCPGLGPQKARRLFDVLHEPFLKVP
notes: ERCC1 (excision repair cross-complementation group 1), human; also called E1; excision repair cross-complementation group 1; source: E. coli BL21 (pGEX 4T-3), purified (glutathione beads)
binds: all assays above

— PMC12041854, “CARM1/PRMT4 facilitates XPF–ERCC1 heterodimer assembly and maintains nucleotide excision repair activity” (Nucleic Acids Research, 2025)
